Measurements published in patent publication US20040072255.

Experiments:
[1] = test system: rat fast skeletal troponin I, beta or diphosphorylated form
[2] = test system: rat fast skeletal troponin I, alpha or monophosphorylated form
Sequence of rat fast skeletal troponin I, alpha or monophosphorylated form (chain, as listed by the source): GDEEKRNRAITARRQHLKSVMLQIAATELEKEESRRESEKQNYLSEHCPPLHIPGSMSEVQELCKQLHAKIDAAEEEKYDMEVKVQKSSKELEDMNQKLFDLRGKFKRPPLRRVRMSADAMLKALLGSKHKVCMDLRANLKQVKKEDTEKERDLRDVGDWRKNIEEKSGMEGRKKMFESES

Sequence of rat fast skeletal troponin I, beta or diphosphorylated form (chain, as listed by the source): as above

Protein phosphatase-1 (Sigma)
dephosphorylation of myofibrils prior to 2-dimensional SDS-PAGE [1]: Neither form was evident in samples after dephosphorylation with PP-I
dephosphorylation of myofibrils prior to 2-dimensional SDS-PAGE [2]: Neither form was evident in samples after dephosphorylation with PP-I
